Drawing on patent US20120095193A1 (published 2012), this text covers kon, Kd and koff for 1 molecule.

Experiment [1] has as its target T1, human ADAMTS5 (human, UniProt Q9UNA0 262-622, limits assumed).
T1 construct: Octet and ELISA used 'recombinant human ADAMTS5'; also called recombinant human ADAMTS5; ADAMTS5 (R&D Systems 2198-AD)
T1 sequence: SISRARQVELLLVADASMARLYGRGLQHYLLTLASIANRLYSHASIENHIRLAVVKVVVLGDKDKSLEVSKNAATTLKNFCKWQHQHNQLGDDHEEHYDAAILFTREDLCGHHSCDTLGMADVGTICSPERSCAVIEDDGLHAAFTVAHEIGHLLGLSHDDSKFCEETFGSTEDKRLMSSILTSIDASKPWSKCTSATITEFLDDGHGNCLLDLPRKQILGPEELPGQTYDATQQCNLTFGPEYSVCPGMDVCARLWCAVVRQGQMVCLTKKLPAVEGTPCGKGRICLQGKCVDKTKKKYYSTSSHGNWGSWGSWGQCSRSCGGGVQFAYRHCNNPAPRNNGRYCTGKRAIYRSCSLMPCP
Put plainly: Biacore, mAb down, no avidity; Biacore, mAb down, no avidity. Background: Surface plasmon resonance follows binding to a sensor surface in real time, without labels.

Experiment [2] concerns the target T1, human ADAMTS5. Briefly: Octet QK, antigen down, incl avidity. (Biolayer interferometry detects binding as a change in optical thickness at a sensor tip.)
In experiment [3] the target is T1, human ADAMTS5. Put plainly: Biacore, mAb from culture supernatant captured on anti-human IgG, ADAMTS5 (R&D 2198-AD) at 64 nM, 1:1 fit. The procedure: Anti-human IgG (Biacore™, BR-1008-39) was immobilized on a CM5 chip by primary amine coupling. This surface was then used to capture the humanized antibodies, ADAMTS5 (R&D Systems 2198-AD) was then passed over the captured antibody at a single concentration of 64 nM, regeneration was carried out using 100 mM phosphoric acid followed by 3M MgCl₂. The binding curves were double referenced with buffer injection (i.e. 0 nM) and the data was fitted to the T100 analysis software using the 1:1 model. The run was carried out at 25° C., using HBS-EP as the running buffer. All antibodies were captured from tissue culture supernatants unless specified.

Experiment [4] concerns the target T1, human ADAMTS5. Put plainly: Biacore, mAb down, no avidity.

B1: BPC1659 (antibody, human IgG1, kappa)
heavy: not shown
light: DIQMTQSPSSLSASVGDRVTITCKASQSVGTTIVWYQQKPGKAPKLLIYSASNRHTGVPSRFSGSGSGTDFTLTISSLQPEDFATYYCQQYTSYPFTFGQGTKLEIKRTVAAPSVFIFPPSDEQLKSGTASVVCLLNNFYPREAKVQWKVDNALQSGNSQESVTEQDSKDSTYSLSSTLTLSKADYEKHKVYACEVTHQGLSSPVTKSFNRGEC
notes: Humanized, human gamma 1 wild type / kappa, with a fully functional Fc; also called 12F4 H4L0; 12F4 H4L0 IgG1 wt
As to B1, the kon with human ADAMTS5 [1] and in the experiment with human ADAMTS5 [3] was 489000 M⁻¹ s⁻¹ each time. The Kd turned out to be 0.0383 nM in the experiment with human ADAMTS5 [2], 0.0848 nM with human ADAMTS5 [3] and 0.085 nM in the experiment with human ADAMTS5 [4]. Moreover, the koff – broadly, a measure of how fast the partners let go of each other – with human ADAMTS5 [3] is 4.15e-05 s⁻¹.
